From patent US20160215040A1 (Regeneron, published 2016) come the findings set out here.

First the molecules themselves.
T1: Ebola virus GP, Sudan strain, on VLPs (Ebola virus, Sudan strain, UniProt Q7T9D9 33-676)
T1 construct: also called Sudan NC_006432
T1 sequence: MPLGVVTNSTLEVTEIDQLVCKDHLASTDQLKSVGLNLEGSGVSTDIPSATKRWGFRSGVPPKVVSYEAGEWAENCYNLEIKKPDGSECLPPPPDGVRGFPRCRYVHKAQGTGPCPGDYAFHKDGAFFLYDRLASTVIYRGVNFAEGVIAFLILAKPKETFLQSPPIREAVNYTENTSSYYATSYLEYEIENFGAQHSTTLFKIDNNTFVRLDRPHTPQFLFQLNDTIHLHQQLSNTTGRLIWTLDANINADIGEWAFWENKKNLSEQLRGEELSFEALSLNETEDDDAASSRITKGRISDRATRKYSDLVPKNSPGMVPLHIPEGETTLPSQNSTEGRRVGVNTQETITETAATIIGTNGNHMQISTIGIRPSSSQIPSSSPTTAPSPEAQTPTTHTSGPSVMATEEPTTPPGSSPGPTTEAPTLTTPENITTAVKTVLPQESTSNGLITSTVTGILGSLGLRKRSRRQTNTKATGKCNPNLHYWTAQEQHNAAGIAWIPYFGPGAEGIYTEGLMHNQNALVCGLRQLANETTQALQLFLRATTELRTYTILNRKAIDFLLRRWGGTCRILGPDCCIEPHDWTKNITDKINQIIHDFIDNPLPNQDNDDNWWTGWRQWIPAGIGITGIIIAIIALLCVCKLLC

T2: Ebola virus GP, Cote d'Ivoire strain, on VLPs (Ebola virus, Cote d'Ivoire strain, UniProt Q66810 33-676)
T2 construct: also called Cote d'Ivoire FJ217162; Ivory Coast
T2 sequence: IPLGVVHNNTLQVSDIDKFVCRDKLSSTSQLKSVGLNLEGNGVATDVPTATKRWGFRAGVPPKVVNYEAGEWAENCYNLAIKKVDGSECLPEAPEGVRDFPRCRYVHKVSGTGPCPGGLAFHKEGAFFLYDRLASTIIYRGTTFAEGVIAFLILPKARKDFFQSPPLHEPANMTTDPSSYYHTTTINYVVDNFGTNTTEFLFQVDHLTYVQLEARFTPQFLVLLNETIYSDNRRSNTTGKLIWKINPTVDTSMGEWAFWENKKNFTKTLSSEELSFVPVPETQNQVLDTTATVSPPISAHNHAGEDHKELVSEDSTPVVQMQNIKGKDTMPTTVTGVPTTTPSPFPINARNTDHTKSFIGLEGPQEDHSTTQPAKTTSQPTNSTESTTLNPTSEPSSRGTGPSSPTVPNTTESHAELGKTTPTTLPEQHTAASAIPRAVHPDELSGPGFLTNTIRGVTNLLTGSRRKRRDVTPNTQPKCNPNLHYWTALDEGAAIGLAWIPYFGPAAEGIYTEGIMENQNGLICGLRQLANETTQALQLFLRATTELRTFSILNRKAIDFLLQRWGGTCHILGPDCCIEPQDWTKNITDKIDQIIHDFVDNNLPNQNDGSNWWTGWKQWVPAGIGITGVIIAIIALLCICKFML

T3: hCNTFR.mmh (ciliary neurotrophic factor receptor.mmh) (human (printed as hCNTFR), UniProt P26992 23-342)
T3 construct: also called negative control protein; not shown: mmh (myc-myc-hexahistidine) tag
T3 sequence: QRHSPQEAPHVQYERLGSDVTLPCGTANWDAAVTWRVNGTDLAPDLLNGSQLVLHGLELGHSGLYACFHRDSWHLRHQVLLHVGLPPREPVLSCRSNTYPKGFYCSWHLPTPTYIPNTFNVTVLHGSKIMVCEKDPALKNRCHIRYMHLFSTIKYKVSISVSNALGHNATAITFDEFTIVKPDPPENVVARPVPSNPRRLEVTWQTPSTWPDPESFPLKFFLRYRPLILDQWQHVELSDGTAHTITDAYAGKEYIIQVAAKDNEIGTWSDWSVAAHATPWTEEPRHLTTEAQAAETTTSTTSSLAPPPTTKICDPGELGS

B1: H1H17193P (antibody, V domains shown)
VH: QVQLVESGGGVVQPGRSLRLSCAASGFTFSSYGIHWVRQAPGKWLEWVAFIWFDGSNKYYADSVKGRFTISRDDSKNTLYLQMNSLRAEDTAVYYCARDGEIFGVLISSDAFDIWGQGTMVTVSS
VL: DIQMTQSPSSLSASVGDRVTITCRASRGIRNDLGWFQQKPGKAPKRLIYVASNLQSGVPSRFSGSGSGTEFTLTISSLQPEDFATYYCLQHNSYPITFGQGTRLEIK
B2: H1H17196P (antibody, V domains shown)
VH: EVQLVESGGGLVQPGGSLRLSCAASGFTFRSYDMHWVRQGSGKGLEWVSAIGTAGDTYYLGSVKGRFTISRENAKNSLYLQMNSLRAGDTAVYYCARAWFGDVFLDYWGQGTLVTVSS
VL: EIVMTQSPATLSVSPGERATLSCRASQSVSSNLAWYQQKPGQAPRLLIYGASTRATGIPARFSGSGSGTEFTLTISSLQSEDFAGYYCQQYNNRLTFGGGTKVEIK
B3: H1H17199P (antibody, V domains shown)
VH: EVQLVESGGGLVQPGGSLRLSCAASGFTFSDHYMVWVRQAPGKGLEWVGRTRNKANSYSTEYAASVKGRFTISRDDSKKSLYLQMNSLKTEDTAVYYCARGGETLWFGESNYGMDVWGQGTTVTVSS
VL: EIVLTQSPDTLSLSPGERATLSCRASQSVSSTYLAWYQQKPGQAPSLLIYGASSRATGIPDRFSGSGSGTDFTLTISRLEPEDFAVYYCQQYGRSPLTFGGGTKVEIK
B4: H1M17354N (antibody, V domains shown)
VH: QVQLVQSGAEVKKPGASVKVSCKASGYTFTSYYMHWVRQAPGQGLEWLGIINPSGGSTSYAQKFQGRVTMTRDTSTSTVYMELSSLRSEDTAVYYCARETGEAGEVFNYWGQGTQVTVSS
VL: DIQMTQSPSSLSASVGDRVTITCRASQIISRYLNWYQHKPGKAPKVLIYAASTLQSGVPSRFSGSGSGTDFTLTISSLQPEDFATYYCQQSYSTPPITFGQGTRLEIK
notes: also called HCAF05C08-22
B5: H2aM17358N (antibody, V domains shown)
VH: EVQLVESGGGLVQPGGSLRLSCAASGFTFSTYEMNWVRQAPGKGLEWVSYSSSSGRTIYYADSVKGRFTISRDNAKNSLFLQMNSLRAEDTAVYYCARPSSIETLLRNQYHYGVDVWGQGTTVTVSS
VL: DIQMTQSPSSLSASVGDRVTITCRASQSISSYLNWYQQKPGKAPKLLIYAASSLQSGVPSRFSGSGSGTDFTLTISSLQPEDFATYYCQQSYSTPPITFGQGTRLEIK
notes: also called HCAF12C05-14
B6: H2aM17360N (antibody, V domains shown)
VH: B5 VH with T31S, S51I, R56S, I58K, F80Y, E103P, T104A, V114M
VL: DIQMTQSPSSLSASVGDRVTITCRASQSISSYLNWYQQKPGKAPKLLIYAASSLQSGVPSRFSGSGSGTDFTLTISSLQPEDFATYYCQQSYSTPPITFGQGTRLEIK
notes: also called HCAF12G09-07

Where a chain is given by its changes, count along the chain named. Some results are limits rather than exact numbers.

The target of the first assay is T1, Ebola virus GP, Sudan strain, on VLPs. As to the kind of experiment: MSD, VLPs coated.
For B1, the binding result was “no binding”.
On the same count and under the same terms, next, B2: “no binding”; B3: “no binding”.
Same read-out and setting: next, B4: “no binding”.

A further assay deals with T2, Ebola virus GP, Cote d'Ivoire strain, …. The assay is described as follows: MSD, VLPs coated.
On to B1, for which the binding result is “no binding”.
As to B2, the binding result is listed as “no binding”.
Regarding B3, the binding result is reported as “no binding”.
The same measure, in the same setting: next, B4: “no binding”.

In the next assay the target is T4, Ebola virus GP with a C-terminal polyhistidine tag (Sino Biologicals, Catalog #40442-V08B1) (Ebola virus, UniProt P87666 33-650).
T4 construct: also called EbolaGP.his; Ebola virus GP.his
As to the kind of experiment: SPR 25C, mAb captured.
Consider B1, for which the Kd (as a rule, the free concentration of one partner at which half of the binding sites on the other are occupied at equilibrium, for simple one-to-one binding) turned out to be 23.6 nM; the koff (commonly a measure of how fast the partners let go of each other) was determined as 0.000108 s⁻¹; the association rate constant (kon) (usually the second-order rate constant of association) was determined as 4580 M⁻¹ s⁻¹; the t½ (usually the time needed for the level to fall by half in the phase considered) turned out to be 107 min.
B2: the Kd is not above 0.391 nM, the koff is not above 1e-05 s⁻¹, the kon came to 25600 M⁻¹ s⁻¹ and the t½ was not below 1160 min.
Take B3: the Kd worked out at 18.9 nM, the koff was 0.000236 s⁻¹, the kon was 12500 M⁻¹ s⁻¹ and the t½ worked out at 49 min.
Turning to B5, binding was characterised by a dissociation constant (Kd) of 623 nM, the koff was found to be 0.000201 s⁻¹, the kon was determined as 322 M⁻¹ s⁻¹ and the t½ is 57.5 min.
B6 showed a Kd of 0.463 nM, an off-rate constant (koff) of 1.06e-05 s⁻¹, a kon of 23000 M⁻¹ s⁻¹ and a t½ of 1090 min.
In the same order, the values of B4 are 63.9 nM, 0.00316 s⁻¹, 49400 M⁻¹ s⁻¹ and 3.7 min.

The next assay has as its target T4, Ebola virus GP with a C-terminal …. The assay is described as follows: SPR 37C, mAb captured.
In turn, B1 showed a dissociation constant (Kd) of 31.8 nM, a dissociation rate constant (koff) of 0.000503 s⁻¹, a kon of 15800 M⁻¹ s⁻¹ and a t½ of 22.9 min.
B2 registered a Kd of 0.317 nM, a koff not above 1e-05 s⁻¹, a kon of 31600 M⁻¹ s⁻¹ and a t½ not below 1160 min.
As for B3, binding was put at a Kd of 42.2 nM, the koff amounted to 0.00128 s⁻¹, the kon came to 30400 M⁻¹ s⁻¹ and the t½ was 9 min.
On to B5, for which the Kd stood at 52.8 nM, the koff is 0.000567 s⁻¹, the kon was determined as 10700 M⁻¹ s⁻¹ and the t½ came out at 20.4 min.
In the same order, the values of B6 are 13.9 nM, 0.000337 s⁻¹, 24300 M⁻¹ s⁻¹ and 34.3 min.
The molecule B4 had a Kd of 113 nM, a koff of 0.00573 s⁻¹, a kon of 50800 M⁻¹ s⁻¹ and a t½ of 2 min.

The next assay has as its target Ebola virus GP, Zaire 2014 strain, on VLPs (pseudoparticles) (Ebola virus, Zaire.2014 strain). As to the kind of experiment: cell-based or functional assay.
On to B5, for which the “Zaire 2014 VLP neutralization IC50” value amounted to 4.68 nM.
On to B6, for which the “Zaire 2014 VLP neutralization IC50” value is 3.75 nM.

Another assay concerns the target T3, hCNTFR.mmh (ciliary neurotrophic factor …). The assay is described as follows: BLI, mAb captured, 25C. In general terms: In BLI a coated tip is dipped into the sample, and binding shifts an interference pattern.
As to B1, the binding result is on record as “no binding (tested: below 0.10 nm at 300 nM)”.
Turning to B2, the binding result is reported as “no binding (tested: below 0.10 nm at 300 nM)”.
Same read-out and setting: next, B3: “no binding (tested: below 0.10 nm at 300 nM)”.
Same read-out and setting: the result for B4 reads “no binding (tested: below 0.10 nm at 300 nM)”.

For a further assay, the target named is T4, Ebola virus GP with a C-terminal …. The assay is described as follows: SPR 37C, mAb captured, pH chase.
Consider B1, for which the “t½ ratio pH 7.4/pH 5.0” value worked out at 0.8 and the “t½ ratio pH 7.4/pH 6.0” value was 1.1.
Consider B2, for which the “t½ ratio pH 7.4/pH 5.0” value was 1 and the “t½ ratio pH 7.4/pH 6.0” value was found to be 1.
Turning to B3, the “t½ ratio pH 7.4/pH 5.0” value amounted to 0.1 and the “t½ ratio pH 7.4/pH 6.0” value was determined as 0.4.
In the same order, the values of B5 are 0.4 and 0.7.
In the same order, the values of B6 are 0.5 and 0.2.
The like results for B4 were, in that order, 1.3 and 1.3.
